T1: IL-2Rβ and common γ chain on HEK-Blue CD122/132 cells (InvivoGen hkb-il2bg) (UniProt P14784 27-551; P31785 23-369, limits assumed)
T1 sequence (looked up) 1: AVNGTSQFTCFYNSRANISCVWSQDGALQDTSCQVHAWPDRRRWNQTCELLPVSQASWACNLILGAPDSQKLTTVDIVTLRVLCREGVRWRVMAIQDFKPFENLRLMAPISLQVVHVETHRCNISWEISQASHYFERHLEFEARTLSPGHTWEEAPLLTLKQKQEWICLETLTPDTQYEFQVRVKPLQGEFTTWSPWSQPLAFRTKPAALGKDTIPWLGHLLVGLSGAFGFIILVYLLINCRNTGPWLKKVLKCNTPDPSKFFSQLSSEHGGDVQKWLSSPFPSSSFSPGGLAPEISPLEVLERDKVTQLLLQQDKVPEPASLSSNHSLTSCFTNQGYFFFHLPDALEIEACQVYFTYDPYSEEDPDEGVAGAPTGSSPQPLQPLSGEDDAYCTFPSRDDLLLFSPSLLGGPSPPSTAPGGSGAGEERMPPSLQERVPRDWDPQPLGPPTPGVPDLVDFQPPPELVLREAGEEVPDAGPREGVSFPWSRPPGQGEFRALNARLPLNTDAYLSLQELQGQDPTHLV
T1 sequence (looked up) 2: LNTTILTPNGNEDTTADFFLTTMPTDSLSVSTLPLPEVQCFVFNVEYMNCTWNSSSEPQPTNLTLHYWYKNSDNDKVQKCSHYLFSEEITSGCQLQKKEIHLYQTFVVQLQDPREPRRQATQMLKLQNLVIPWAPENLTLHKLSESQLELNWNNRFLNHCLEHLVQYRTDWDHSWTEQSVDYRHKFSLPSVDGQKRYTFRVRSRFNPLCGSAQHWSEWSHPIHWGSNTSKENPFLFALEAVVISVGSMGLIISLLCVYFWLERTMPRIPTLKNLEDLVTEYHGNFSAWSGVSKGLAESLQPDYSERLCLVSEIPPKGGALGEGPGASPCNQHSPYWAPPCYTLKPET

T2: IL-2Rβ-his (Acro CD2-H5221) (UniProt P14784 27-239)
T2 construct: also called CD122; not shown: his tag
T2 sequence (looked up): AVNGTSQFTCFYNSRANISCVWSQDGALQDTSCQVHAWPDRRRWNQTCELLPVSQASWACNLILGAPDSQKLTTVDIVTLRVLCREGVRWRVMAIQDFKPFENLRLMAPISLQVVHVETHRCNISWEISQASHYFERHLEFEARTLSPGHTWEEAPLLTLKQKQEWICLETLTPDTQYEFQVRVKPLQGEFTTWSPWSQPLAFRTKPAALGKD

B1: GIC-982C1 (IL-2/IL-15) (Fc fusion)
chain: GSAESKYGPPCPPCPAPEAAGGPSVFLFPPKPKDQLMISRTPEVTCVVVDVSQEDPEVQFNWYVDGVEVHNAKTKPREEQFNSTYRVVSVLTVLHQDWLNGKEYKCKVSNKGLPSSIEKTISKAKGQPREPQVYTLPPSQEEMTKNQVSLTCLVKGFYPSDIAVEWESNGQPENNYKTTPPVLDSDGSFFLYSRLTVDKSRWQEGNVFSCSVLHEALHNHYTQKSLSLSLGGGGGSGGGGSITCPPPMSVEHADIWVKSYSLYSRERYICNSGFKRKAGTSSLTECVLNKATNVAHWTTPSLKCIRGGGGSGGGGSGGGGSGGGGSAPTSSSTKKTQLQLEHLLLDLQMILNGSMHIDATLYTESDVHPSCKVTAMKCFLLELQVISLESKNFHLRPRDLISNINVIVLELKGSNGNVTESGCKECEELEEKNIVEFLNRWITFCQSIISTLT
B2: GIC-982C2 (IL-2/IL-15v1) (D73E) (Fc fusion)
chain: GSAESKYGPPCPPCPAPEAAGGPSVFLFPPKPKDQLMISRTPEVTCVVVDVSQEDPEVQFNWYVDGVEVHNAKTKPREEQFNSTYRVVSVLTVLHQDWLNGKEYKCKVSNKGLPSSIEKTISKAKGQPREPQVYTLPPSQEEMTKNQVSLTCLVKGFYPSDIAVEWESNGQPENNYKTTPPVLDSDGSFFLYSRLTVDKSRWQEGNVFSCSVLHEALHNHYTQKSLSLSLGGGGGSGGGGSITCPPPMSVEHADIWVKSYSLYSRERYICNSGFKRKAGTSSLTECVLNKATNVAHWTTPSLKCIRGGGGSGGGGSGGGGSGGGGSAPTSSSTKKTQLQLEHLLLDLQMILNGSMHIDATLYTESDVHPSCKVTAMKCFLLELQVISLESKNFHLRPRELISNINVIVLELKGSNGNVTESGCKECEELEEKNIVEFLNRWITFCQSIISTLT
notes: the entry already holds the change
B3: GIC-982C3 (IL-2/IL-15v2) (L74F) (Fc fusion)
chain: GSAESKYGPPCPPCPAPEAAGGPSVFLFPPKPKDQLMISRTPEVTCVVVDVSQEDPEVQFNWYVDGVEVHNAKTKPREEQFNSTYRVVSVLTVLHQDWLNGKEYKCKVSNKGLPSSIEKTISKAKGQPREPQVYTLPPSQEEMTKNQVSLTCLVKGFYPSDIAVEWESNGQPENNYKTTPPVLDSDGSFFLYSRLTVDKSRWQEGNVFSCSVLHEALHNHYTQKSLSLSLGGGGGSGGGGSITCPPPMSVEHADIWVKSYSLYSRERYICNSGFKRKAGTSSLTECVLNKATNVAHWTTPSLKCIRGGGGSGGGGSGGGGSGGGGSAPTSSSTKKTQLQLEHLLLDLQMILNGSMHIDATLYTESDVHPSCKVTAMKCFLLELQVISLESKNFHLRPRDFISNINVIVLELKGSNGNVTESGCKECEELEEKNIVEFLNRWITFCQSIISTLT
notes: as for B2
B4: GIC-982C4 (IL-2/IL-15v3) (S76D) (Fc fusion)
chain: GSAESKYGPPCPPCPAPEAAGGPSVFLFPPKPKDQLMISRTPEVTCVVVDVSQEDPEVQFNWYVDGVEVHNAKTKPREEQFNSTYRVVSVLTVLHQDWLNGKEYKCKVSNKGLPSSIEKTISKAKGQPREPQVYTLPPSQEEMTKNQVSLTCLVKGFYPSDIAVEWESNGQPENNYKTTPPVLDSDGSFFLYSRLTVDKSRWQEGNVFSCSVLHEALHNHYTQKSLSLSLGGGGGSGGGGSITCPPPMSVEHADIWVKSYSLYSRERYICNSGFKRKAGTSSLTECVLNKATNVAHWTTPSLKCIRGGGGSGGGGSGGGGSGGGGSAPTSSSTKKTQLQLEHLLLDLQMILNGSMHIDATLYTESDVHPSCKVTAMKCFLLELQVISLESKNFHLRPRDLIDNINVIVLELKGSNGNVTESGCKECEELEEKNIVEFLNRWITFCQSIISTLT
notes: as for B2
B5: GIC-982C5 (IL-2/IL-15v4) (N77D) (Fc fusion)
chain: GSAESKYGPPCPPCPAPEAAGGPSVFLFPPKPKDQLMISRTPEVTCVVVDVSQEDPEVQFNWYVDGVEVHNAKTKPREEQFNSTYRVVSVLTVLHQDWLNGKEYKCKVSNKGLPSSIEKTISKAKGQPREPQVYTLPPSQEEMTKNQVSLTCLVKGFYPSDIAVEWESNGQPENNYKTTPPVLDSDGSFFLYSRLTVDKSRWQEGNVFSCSVLHEALHNHYTQKSLSLSLGGGGGSGGGGSITCPPPMSVEHADIWVKSYSLYSRERYICNSGFKRKAGTSSLTECVLNKATNVAHWTTPSLKCIRGGGGSGGGGSGGGGSGGGGSAPTSSSTKKTQLQLEHLLLDLQMILNGSMHIDATLYTESDVHPSCKVTAMKCFLLELQVISLESKNFHLRPRDLISDINVIVLELKGSNGNVTESGCKECEELEEKNIVEFLNRWITFCQSIISTLT
notes: as for B2
B6: GIC-982C6 (IL-2/IL-15v5) (V80L) (Fc fusion)
chain: GSAESKYGPPCPPCPAPEAAGGPSVFLFPPKPKDQLMISRTPEVTCVVVDVSQEDPEVQFNWYVDGVEVHNAKTKPREEQFNSTYRVVSVLTVLHQDWLNGKEYKCKVSNKGLPSSIEKTISKAKGQPREPQVYTLPPSQEEMTKNQVSLTCLVKGFYPSDIAVEWESNGQPENNYKTTPPVLDSDGSFFLYSRLTVDKSRWQEGNVFSCSVLHEALHNHYTQKSLSLSLGGGGGSGGGGSITCPPPMSVEHADIWVKSYSLYSRERYICNSGFKRKAGTSSLTECVLNKATNVAHWTTPSLKCIRGGGGSGGGGSGGGGSGGGGSAPTSSSTKKTQLQLEHLLLDLQMILNGSMHIDATLYTESDVHPSCKVTAMKCFLLELQVISLESKNFHLRPRDLISNINLIVLELKGSNGNVTESGCKECEELEEKNIVEFLNRWITFCQSIISTLT
notes: as for B2
B7: GIC-982C12 (IL-2/IL-15v11) (D73E, L74F, S76D, N77D, V80L) (Fc fusion)
chain: GSAESKYGPPCPPCPAPEAAGGPSVFLFPPKPKDQLMISRTPEVTCVVVDVSQEDPEVQFNWYVDGVEVHNAKTKPREEQFNSTYRVVSVLTVLHQDWLNGKEYKCKVSNKGLPSSIEKTISKAKGQPREPQVYTLPPSQEEMTKNQVSLTCLVKGFYPSDIAVEWESNGQPENNYKTTPPVLDSDGSFFLYSRLTVDKSRWQEGNVFSCSVLHEALHNHYTQKSLSLSLGGGGGSGGGGSITCPPPMSVEHADIWVKSYSLYSRERYICNSGFKRKAGTSSLTECVLNKATNVAHWTTPSLKCIRGGGGSGGGGSGGGGSGGGGSAPTSSSTKKTQLQLEHLLLDLQMILNGSMHIDATLYTESDVHPSCKVTAMKCFLLELQVISLESKNFHLRPREFIDDINLIVLELKGSNGNVTESGCKECEELEEKNIVEFLNRWITFCQSIISTLT
notes: the entry already holds the changes
B8: GIC-982C13 (IL-2/IL-15v6) (S76E) (Fc fusion)
chain: GSAESKYGPPCPPCPAPEAAGGPSVFLFPPKPKDQLMISRTPEVTCVVVDVSQEDPEVQFNWYVDGVEVHNAKTKPREEQFNSTYRVVSVLTVLHQDWLNGKEYKCKVSNKGLPSSIEKTISKAKGQPREPQVYTLPPSQEEMTKNQVSLTCLVKGFYPSDIAVEWESNGQPENNYKTTPPVLDSDGSFFLYSRLTVDKSRWQEGNVFSCSVLHEALHNHYTQKSLSLSLGGGGGSGGGGSITCPPPMSVEHADIWVKSYSLYSRERYICNSGFKRKAGTSSLTECVLNKATNVAHWTTPSLKCIRGGGGSGGGGSGGGGSGGGGSAPTSSSTKKTQLQLEHLLLDLQMILNGSMHIDATLYTESDVHPSCKVTAMKCFLLELQVISLESKNFHLRPRDLIENINVIVLELKGSNGNVTESGCKECEELEEKNIVEFLNRWITFCQSIISTLT
B9: GIC-982C14 (IL-2/IL-15v7) (S76N) (Fc fusion)
chain: GSAESKYGPPCPPCPAPEAAGGPSVFLFPPKPKDQLMISRTPEVTCVVVDVSQEDPEVQFNWYVDGVEVHNAKTKPREEQFNSTYRVVSVLTVLHQDWLNGKEYKCKVSNKGLPSSIEKTISKAKGQPREPQVYTLPPSQEEMTKNQVSLTCLVKGFYPSDIAVEWESNGQPENNYKTTPPVLDSDGSFFLYSRLTVDKSRWQEGNVFSCSVLHEALHNHYTQKSLSLSLGGGGGSGGGGSITCPPPMSVEHADIWVKSYSLYSRERYICNSGFKRKAGTSSLTECVLNKATNVAHWTTPSLKCIRGGGGSGGGGSGGGGSGGGGSAPTSSSTKKTQLQLEHLLLDLQMILNGSMHIDATLYTESDVHPSCKVTAMKCFLLELQVISLESKNFHLRPRDLINNINVIVLELKGSNGNVTESGCKECEELEEKNIVEFLNRWITFCQSIISTLT

Key:
[1] = biological target: T1, IL-2Rβ and common γ chain on HEK-Blue …; assay: cell-based or functional assay
[2] = biological target: T2, IL-2Rβ-his (Acro CD2-H5221); assay: Octet BLI; IL-2Rβ-his on Ni-NTA sensor, analyte 2,000 to 31.25 nM

| Binder | EC50 (ng/ml), STAT5 activity, HEK-Blue CD122/132 reporter cells [1] | Kd [2] | koff [2] | kon [2] |
| --- | --- | --- | --- | --- |
| B1 | 1730 ng/mL | 387 nM | 0.000335 s⁻¹ | 866 M⁻¹ s⁻¹ |
| B2 | 1080 ng/mL | 215 nM | 0.000148 s⁻¹ | 686 M⁻¹ s⁻¹ |
| B3 | 9740 ng/mL | 302 nM | 0.000481 s⁻¹ | 1590 M⁻¹ s⁻¹ |
| B4 | 255 ng/mL | 144 nM | 0.000338 s⁻¹ | 2350 M⁻¹ s⁻¹ |
| B5 |  | 1290 nM | 0.000313 s⁻¹ | 242 M⁻¹ s⁻¹ |
| B6 | 723 ng/mL | 386 nM | 0.000435 s⁻¹ | 1130 M⁻¹ s⁻¹ |
| B7 |  | 265 nM | 9.11e-05 s⁻¹ | 344 M⁻¹ s⁻¹ |
| B8 | 1390 ng/mL | 105 nM | 0.000204 s⁻¹ | 1930 M⁻¹ s⁻¹ |
| B9 | 997 ng/mL | 327 nM | 0.000223 s⁻¹ | 686 M⁻¹ s⁻¹ |
